Data set [1] concerns the target T1, AtWRKY12 (Arabidopsis thaliana, UniProt Q93WY4 SEQ:1-218). In words: EMSA; 100 ng protein, 20 min, Pierce EMSA kit buffer. The note with it: tags: MBP fusion, expressed in E. coli, amylose resin purified; label: 5' biotin on one strand. The text has this: (§1) To express the recombinant AtWRKY12 protein, the coding sequence was fused in frame with maltose binding protein (MBP), expressed in E. coli, and the recombinant protein was purified using amylose resin. The pure protein was used for EMSA with the NST2 or C3H promoter fragments. Double-strand probe and competitor fragments were made from annealing of separately synthesized strands, with/without one 5′ biotin labeled strand. The sequence used for NST2 was:
(§2) For C3H the sequence was: 5′-[…]-3′ (SEQ ID NO:42); and for C3HL the sequence was 5′-[…]-3′ (SEQ ID NO:43). The conserved WRKY binding motifs are underlined. The biotin-labeled and competitor DNA fragments were incubated for 20 min with 100 ng of AtWRKY12-MBP in binding buffer according to the EMSA kit protocol (Pierce, Rockford, Ill.), and reaction mixtures were loaded for polyacrylamide gel electrophoresis. The DNA was electroblotted onto nitrocellulose membrane and detected by the chemiluminescent method.
In general terms: In EMSA bound probe runs differently from free probe, usually more slowly.

Data set [2] concerns the target T1, AtWRKY12. In words: EMSA; 100 ng protein, 20 min; no binding detected. Conditions: tags: MBP fusion, expressed in E. coli, amylose resin purified; label: 5' biotin on one strand.
Excerpt: as §1, §2

T1 sequence (Q93WY4 whole entry, the tested form may be a part): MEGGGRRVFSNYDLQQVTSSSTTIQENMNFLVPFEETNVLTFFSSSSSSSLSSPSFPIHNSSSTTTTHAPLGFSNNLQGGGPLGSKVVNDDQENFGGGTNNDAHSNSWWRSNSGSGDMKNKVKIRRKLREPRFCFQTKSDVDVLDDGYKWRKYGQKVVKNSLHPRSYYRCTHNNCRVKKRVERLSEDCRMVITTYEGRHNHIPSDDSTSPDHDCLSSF

B1: NST2 promoter fragment (dsDNA)
DNA 1: AAAGAGACCATTAGTATATTTGACCCAAAAAAAAATAAAAAAAAAAGAG
DNA 2: CTCTTTTTTTTTTATTTTTTTTTGGGTCAAATATACTAATGGTCTCTTT
Consider B1, for which, in data set [1], the binding result is listed as “binds”.

B2: C3H14L promoter fragment (dsDNA)
DNA 1: TGGCTTAAATCATATTGACAAGACCCATTAAAAAGAGG
DNA 2: CCTCTTTTTAATGGGTCTTGTCAATATGATTTAAGCCA
As to B2, the binding result in data set [2] was “no binding”.

B3: C3H14 promoter fragment (dsDNA)
DNA 1: TGGAAGATGCATGTTATTGACTAAATATGATCTACCA
DNA 2: TGGTAGATCATATTTAGTCAATAACATGCATCTTCCA
B3: the binding result in data set [2] is recorded as “no binding”.

The values are drawn from patent US20120117691, “TRANSCRIPTION FACTORS FOR MODIFICATION OF LIGNIN CONTENT IN PLANTS” (The Samuel Roberts Noble Foundation, Inc., published 2012).
